From article PMC4838380 (Nucleic Acids Research, 2016)

Target: the molecule itself
Assay: SEC

B1: Endonuclease MS from Thermococcus kodakarensis (TkoEndoMS), protein encoded by TK1898 (enzyme, UniProt Q5JER9 1-252, looked up)
chain: MSKDKVTVITSPSTEELVSLVNSALLEEAMLTIFARCKVHYDGRAKSELGSGDRVIIVKPDGSFLIHQSKKREPVNWQPPGSRVRLELRENPVLVSIRRKPRETLEVELEEVYMVSVFRAEDYEELALTGSEAEMAELIFENPEVIEPGFKPLFREKAIGTGIVDVLGRDSDGNIVVLELKRRRAELHAVRQLKSYVEILREEYGDKVRGILVAPSLTSGAKRLLEKEGLEFRKLEPPKRDSKKKGRQKTLF
stoichiometry N: 2
